# Measurements from paper PMC10767740, “Recombinant Full-Length TDP-43 Oligomers Retain Their Ability to Bind RNAs, Are Not Toxic, and Do Not Seed TDP-43 Aggregation in Vitro” (ACS Chemical Neuroscience, 2023).
# B1: TDP-43 core peptide 279–360 (peptide, UniProt Q13148 279-360, looked up)
# chain: NPGGFGNQGGFGNSRGGGAGLGNNQGSNMGGGMNFGAFSINPAMMAAAQAALQSSWGMMGMLASQQNQSGPSGNNQNQGNMQ
# notes: also called amyloid core peptide; source: lyophilized, disaggregated in HFIP/TFA
# Target: the molecule itself
# Test: ThT aggregation kinetics + TEM; 5 μM core peptide, 20 μM ThT, with or without 2.5% fibrillar seeds of the same peptide; 25 °C, 40 h, shaken 5 s at 100 rpm before each reading; TEM at the end
protein,measurement,value
B1,binding result,binds
